This note sets out measurements from patent US20110223165A1 (Amgen, published 2011).

The target in assay [1] is T1, human membrane c-Kit on cells (human, UniProt P10721 26-976). Description: cell-based or functional assay.
The target of assay [2] is T2, recombinant c-Kit receptor-Fc (UniProt P10721 26-520, limits assumed).
T2 construct: not shown: Fc part
As to the kind of experiment: KinExA equilibrium binding; KinExA equilibrium binding; recombinant c-Kit receptor-Fc.

In assay [3] the target is c-Kit (form in the assay not stated) (UniProt P10721 26-520, limits assumed). As to the kind of experiment: Biacore assay, blocking of SCF binding to c-Kit; Biacore; blocking of SCF binding; c-Kit form not stated.
Sequence of c-Kit (form in the assay not stated) (P10721 26-520 limits assumed): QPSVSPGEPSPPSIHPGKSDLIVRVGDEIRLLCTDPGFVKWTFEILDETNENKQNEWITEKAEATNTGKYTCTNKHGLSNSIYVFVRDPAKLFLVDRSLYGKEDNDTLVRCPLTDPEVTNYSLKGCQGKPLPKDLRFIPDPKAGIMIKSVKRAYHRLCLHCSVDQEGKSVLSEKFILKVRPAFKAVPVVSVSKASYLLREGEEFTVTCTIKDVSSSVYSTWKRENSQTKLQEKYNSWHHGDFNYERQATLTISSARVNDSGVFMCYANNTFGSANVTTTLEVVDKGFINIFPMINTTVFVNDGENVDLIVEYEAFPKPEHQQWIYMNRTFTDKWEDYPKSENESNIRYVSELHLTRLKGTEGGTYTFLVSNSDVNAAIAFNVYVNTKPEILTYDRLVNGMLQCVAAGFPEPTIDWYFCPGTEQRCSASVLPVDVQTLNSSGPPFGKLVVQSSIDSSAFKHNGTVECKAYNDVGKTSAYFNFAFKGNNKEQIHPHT
In assay [4] the target is T1, human membrane c-Kit on cells. Description: cell-based or functional assay. The source holds these as a separate data set.
In assay [5] the target is T3, Fcγ receptor I (CD64) on U-937 cells (UniProt P12314 16-374, limits assumed).
T3 construct: whole, on cells; also called FcγRI
T3 sequence (P12314 16-374 limits assumed): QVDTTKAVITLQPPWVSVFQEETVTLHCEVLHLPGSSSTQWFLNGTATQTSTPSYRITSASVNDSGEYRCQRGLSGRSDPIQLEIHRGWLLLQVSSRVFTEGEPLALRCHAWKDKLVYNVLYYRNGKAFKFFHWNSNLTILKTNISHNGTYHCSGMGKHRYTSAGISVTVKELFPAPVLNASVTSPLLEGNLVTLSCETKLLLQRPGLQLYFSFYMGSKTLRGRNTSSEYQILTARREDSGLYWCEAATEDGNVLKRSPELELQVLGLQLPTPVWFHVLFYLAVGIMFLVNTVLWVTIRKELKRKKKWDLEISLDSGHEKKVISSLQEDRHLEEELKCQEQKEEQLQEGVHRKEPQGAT
As to the kind of experiment: binding to U-937 cells.

T1 sequence (P10721 26-976): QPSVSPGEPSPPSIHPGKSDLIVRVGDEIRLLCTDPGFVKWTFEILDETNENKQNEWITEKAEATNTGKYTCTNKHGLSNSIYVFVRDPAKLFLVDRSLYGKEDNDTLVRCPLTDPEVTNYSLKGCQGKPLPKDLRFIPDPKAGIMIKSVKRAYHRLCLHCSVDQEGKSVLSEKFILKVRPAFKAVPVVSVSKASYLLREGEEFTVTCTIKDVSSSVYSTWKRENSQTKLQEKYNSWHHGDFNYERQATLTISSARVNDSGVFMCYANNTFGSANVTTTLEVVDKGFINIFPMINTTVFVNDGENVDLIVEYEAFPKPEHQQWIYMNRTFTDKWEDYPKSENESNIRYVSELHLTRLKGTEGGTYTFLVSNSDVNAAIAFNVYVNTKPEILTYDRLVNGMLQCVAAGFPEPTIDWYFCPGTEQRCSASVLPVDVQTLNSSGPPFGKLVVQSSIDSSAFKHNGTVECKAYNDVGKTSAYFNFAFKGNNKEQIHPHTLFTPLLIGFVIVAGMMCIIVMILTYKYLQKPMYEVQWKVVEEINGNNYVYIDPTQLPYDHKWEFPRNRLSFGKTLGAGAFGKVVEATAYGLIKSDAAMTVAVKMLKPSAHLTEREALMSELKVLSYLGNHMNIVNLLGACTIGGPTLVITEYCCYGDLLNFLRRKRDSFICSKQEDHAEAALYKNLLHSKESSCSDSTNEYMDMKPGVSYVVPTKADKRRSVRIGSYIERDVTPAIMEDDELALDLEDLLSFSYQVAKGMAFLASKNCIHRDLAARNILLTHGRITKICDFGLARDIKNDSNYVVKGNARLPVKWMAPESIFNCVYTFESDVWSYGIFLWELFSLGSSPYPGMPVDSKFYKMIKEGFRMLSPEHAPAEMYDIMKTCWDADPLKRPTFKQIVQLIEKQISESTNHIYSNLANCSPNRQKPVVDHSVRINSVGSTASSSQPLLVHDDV
T2 sequence (P10721 26-520 limits assumed): as the sequence (P10721 26-520 limits assumed) above

B1: murine anti-human c-Kit monoclonal antibody SR-1 (antibody, mouse IgG2a, kappa, V domains shown)
VH: QVQLQQPGAELVKPGASVKMSCKASGYTFTSYNMHWVKQTPGQGLEWIGVIYSGNGDTSYNQKFKGKATLTADKSSSTAYMQINSLTSEDSAVYYCARERDTRFGNWGQGTLVTVSA
VL: NIVLTQSPASLAVSLGLRATISCRASESVDIYGNSFMHWYQQKPGQPPKLLIYLASNLESGVPARFSGSGSRTDFTLTIDPVEADDAATYYCQQNNEDPYTFGGGTKLEIKR
As to B1, the “UT-7 IC50” value in assay [1] worked out at 3.6 ng/mL.

B2: Humanized SR-1 aglycosylated IgG1 (hSR-1 aIgG1) (antibody)
heavy: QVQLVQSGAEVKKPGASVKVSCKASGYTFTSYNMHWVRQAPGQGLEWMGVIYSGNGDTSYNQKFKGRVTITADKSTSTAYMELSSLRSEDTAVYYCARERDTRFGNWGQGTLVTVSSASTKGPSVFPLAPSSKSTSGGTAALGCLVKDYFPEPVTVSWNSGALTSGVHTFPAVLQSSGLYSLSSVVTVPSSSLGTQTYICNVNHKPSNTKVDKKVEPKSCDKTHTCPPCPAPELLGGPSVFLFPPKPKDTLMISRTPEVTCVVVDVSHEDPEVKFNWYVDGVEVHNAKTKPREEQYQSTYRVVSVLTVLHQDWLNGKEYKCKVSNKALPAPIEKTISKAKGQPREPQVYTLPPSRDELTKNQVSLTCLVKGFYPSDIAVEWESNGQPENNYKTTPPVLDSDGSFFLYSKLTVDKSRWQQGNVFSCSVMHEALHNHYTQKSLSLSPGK
light: DIVMTQSPDSLAVSLGERATINCRASESVDIYGNSFMHWYQQKPGQPPKLLIYLASNLESGVPDRFSGSGSGTDFTLTISSLQAEDVAVYYCQQNNEDPYTFGGGTKVEIKRTVAAPSVFIFPPSDEQLKSGTASVVCLLNNFYPREAKVQWKVDNALQSGNSQESVTEQDSKDSTYSLSSTLTLSKADYEKHKVYACEVTHQGLSSPVTKSFNRGEC
notes: also called Humanized SR-1 aIgG1; Humanized SR-1 aglyco-IgG1
For B2, the dissociation constant (Kd) in assay [2] worked out at 0.001 nM. Besides, in assay [1], the “UT-7 IC50” value was determined as 4.5 ng/mL. Also, in assay [3], affinity was put at a Ki of 0.07 nM. The “IC50, SCF-dependent survival/proliferation of UT-7 cells” value in assay [4] turned out to be 0.035 nM. Moreover, in assay [5], the binding result is “no binding”.
